Data: US20240207377A1

Biological target: Recombinant Human TACE/ADAM17 (930-ADB, R&D Systems) (human) (UniProt P78536)
Test: cell-based or functional assay

UniProt P78536, sequence (P78536 215-671 limits assumed): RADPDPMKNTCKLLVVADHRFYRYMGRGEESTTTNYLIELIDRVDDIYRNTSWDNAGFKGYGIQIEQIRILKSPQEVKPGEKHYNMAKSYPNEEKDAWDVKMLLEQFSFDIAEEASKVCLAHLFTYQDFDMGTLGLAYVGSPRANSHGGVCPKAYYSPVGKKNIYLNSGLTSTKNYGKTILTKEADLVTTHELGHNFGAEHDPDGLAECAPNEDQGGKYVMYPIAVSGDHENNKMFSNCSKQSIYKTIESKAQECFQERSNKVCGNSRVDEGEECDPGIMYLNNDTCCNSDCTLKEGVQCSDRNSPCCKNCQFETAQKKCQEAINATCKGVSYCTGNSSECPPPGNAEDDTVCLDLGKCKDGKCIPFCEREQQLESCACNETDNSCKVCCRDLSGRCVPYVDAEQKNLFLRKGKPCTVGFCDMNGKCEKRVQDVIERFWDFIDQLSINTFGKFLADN

human alpha-1-antitrypsin (AAT) (Sigma Aldrich, batch A6150) (from UniProt P01009 25-418)
TACE activity in a cell-free assay (fluorogenic peptide substrate Mca-PLAQAV-Dpa-RSSSR-NH2), IC50: 15.3 µM
